Experiments:
[1] = biological target: T1, thrombin (human, UniProt P00734;P00734 328-363;364-622); experiment: fluorescence anisotropy
[2] = biological target: T1, thrombin; experiment: fluorescence anisotropy; remark: listed apart in the source
[3] = biological target: T1, thrombin; experiment: fluorescence anisotropy; remark: listed apart in the source
[4] = biological target: T1, thrombin; experiment: fluorescence anisotropy; remark: listed apart in the source
[5] = biological target: T1, thrombin; experiment: fluorescence anisotropy; remark: listed apart in the source
[6] = biological target: T1, thrombin; experiment: fluorescence anisotropy; remark: listed apart in the source
[7] = biological target: T1, thrombin; experiment: affinity probe capillary electrophoresis
[8] = biological target: T1, thrombin; experiment: affinity probe capillary electrophoresis; remark: listed apart in the source
[9] = biological target: T1, thrombin; experiment: affinity probe capillary electrophoresis; remark: listed apart in the source

Q: Which “apparent K (half saturation)” value [1] does the source give for GGTTGGTGTGGTTGG (structured_DNA) [15mer, Texas Red] here?
A: 25 ± 1.5 nM

Q: And the “apparent K (half saturation)” value [2]?
A: 29.7 ± 1.1 nM

Q: What about the “apparent K (half saturation)” value [3] of the same binder?
A: 51.8 ± 2.9 nM

Q: And the “apparent K (half saturation)” value [4]?
A: 30.4 ± 2.6 nM

Q: What about the “apparent K (half saturation)” value [5] of the same binder?
A: 27.3 ± 1.6 nM

Q: What about the “apparent K (half saturation)” value [6] of the same binder?
A: 23.7 ± 1.1 nM

Q: What about the Kd [7] of the same binder?
A: 4.5 ± 1.4 nM

Q: Which results are given for GGTTGGTGTGGTTGG (structured_DNA) [15mer Fl (FAM)]?
A: apparent K (half saturation) [8]: 60.9 ± 5.3 nM; apparent K (half saturation) [9]: 49.2 ± 1.2 nM
